The source of these data is patent publication US6881827B2, “Molecular cloning of a 7TM receptor (AXOR34) and screening methods thereof” (SmithKline Beecham Corporation, priority 1999, dated 2005).

T1 sequence (Q9GZQ4 whole entry): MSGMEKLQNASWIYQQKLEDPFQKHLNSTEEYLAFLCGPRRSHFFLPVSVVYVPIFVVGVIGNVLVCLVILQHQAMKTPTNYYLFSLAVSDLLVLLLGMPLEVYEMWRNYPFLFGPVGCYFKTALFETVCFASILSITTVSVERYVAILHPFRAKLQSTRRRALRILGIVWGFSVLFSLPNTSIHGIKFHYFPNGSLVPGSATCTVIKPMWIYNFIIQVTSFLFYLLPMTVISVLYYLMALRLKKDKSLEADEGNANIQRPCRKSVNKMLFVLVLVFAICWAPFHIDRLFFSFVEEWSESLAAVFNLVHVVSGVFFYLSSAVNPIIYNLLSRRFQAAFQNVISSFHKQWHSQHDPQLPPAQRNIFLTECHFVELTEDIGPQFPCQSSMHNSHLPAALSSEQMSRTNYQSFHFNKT

This assay has as its target T1, AXOR34 (Homo sapiens, UniProt Q9GZQ4).
T1 construct: expressed in transfected cells; host or cells: HEK-293 cells, transient transfection (pCDN vector as the empty-vector control)
In words: FLIPR calcium mobilization assay in HEK-293 cells transiently transfected with AXOR34. In kind it is cell-based. The note with it: ligand concentrations 1 μM-0.1 nM. From the text:
There was no concentration-dependent activity for pCDNs or untransfected cells.
As to porcine Neuromedin U-8 [porcine NmU-8], the calcium mobilization response entry is recorded as “robust calcium mobilization responses”. Take “porcine Neuromedin U-25 (FLVDEEFQGPIVSQNRRYFLFRPRN; HOMO SAPIENS) [porcine NmU-25]”: the calcium mobilization response entry is recorded as “robust calcium mobilization responses”. As for “rat Neuromedin U-23 (YKVNEYQGPVAPSGGFFLFRPRN; HOMO SAPIENS) [rat NmU-23]”, the entry is “robust calcium mobilization responses”.
